Experiment [1] deals with Bacillus anthracis protective antigen (PA), 83 kDa polypeptide (Bacillus anthracis) (UniProt P13423). Put plainly: SPR, PA immobilized on CM5 chip. A general note: In SPR one partner is held on a chip, and binding of the other changes the refractive index at the surface.
For experiment [2] the target is unchanged. Put plainly: SPR, PA immobilized on CM5 chip. The source holds these as a separate data set.
Experiment [3] has the same target. Kind of experiment: SPR, PA immobilized on CM5 chip at low coupling density.
For experiment [4] the target is unchanged. Kind of experiment: ELISA on PA; scFv kept 2 h at 4 C before the titration.

Like-named read-outs stand apart in the source and are kept apart here.

Chain of Bacillus anthracis protective antigen (PA), 83 kDa polypeptide (Bacillus anthracis) (P13423 30-764 limits assumed): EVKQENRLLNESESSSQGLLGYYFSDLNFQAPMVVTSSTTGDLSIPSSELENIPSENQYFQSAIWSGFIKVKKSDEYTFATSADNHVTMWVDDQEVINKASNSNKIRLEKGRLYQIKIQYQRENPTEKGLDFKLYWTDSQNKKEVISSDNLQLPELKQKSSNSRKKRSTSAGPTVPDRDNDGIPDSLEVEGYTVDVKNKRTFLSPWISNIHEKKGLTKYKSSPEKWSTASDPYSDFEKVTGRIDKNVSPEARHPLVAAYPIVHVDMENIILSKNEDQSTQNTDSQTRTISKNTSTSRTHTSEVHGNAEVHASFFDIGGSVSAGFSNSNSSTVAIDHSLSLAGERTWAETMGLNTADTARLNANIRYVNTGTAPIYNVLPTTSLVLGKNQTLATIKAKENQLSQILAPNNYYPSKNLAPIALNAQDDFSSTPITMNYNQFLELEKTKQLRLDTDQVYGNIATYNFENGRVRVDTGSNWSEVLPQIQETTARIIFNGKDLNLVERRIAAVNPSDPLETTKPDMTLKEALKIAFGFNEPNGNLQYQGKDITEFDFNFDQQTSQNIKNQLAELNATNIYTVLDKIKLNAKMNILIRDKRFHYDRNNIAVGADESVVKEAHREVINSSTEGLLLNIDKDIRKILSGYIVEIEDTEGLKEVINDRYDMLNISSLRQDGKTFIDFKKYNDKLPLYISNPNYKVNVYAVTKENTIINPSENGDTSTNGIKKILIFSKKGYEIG

Usually Kd stands for the equilibrium constant for the complex coming apart. The koff is a measure of how fast the partners let go of each other. Read a low koff as a long-lived complex. For orientation: kon means a measure of how fast the partners come together. The low end stands for slower complex formation, the high end for faster complex formation. For the substance “14B7 Fab (papain digest of the 14B7 mouse IgG1)”, in experiment [1], the dissociation constant (Kd) is 12 nM, the koff was determined as 0.0033 s⁻¹ and the kon turned out to be 300000 M⁻¹ s⁻¹. Besides, in experiment [2], the koff worked out at 0.0035 s⁻¹ and the kon was found to be 310000 M⁻¹ s⁻¹.
In experiment [1], “14B7 monoclonal antibody (mouse IgG1 from hybridoma 14B7)” yielded a koff of 0.00135 s⁻¹ and a kon of 500000 M⁻¹ s⁻¹. The Kd in experiment [3] is 2.3 nM.
As to “14B7 wild type scAb (scFv with a C-terminal human constant kappa domain)”, in experiment [1], the off-rate constant (koff) was 0.003 s⁻¹ and the kon worked out at 290000 M⁻¹ s⁻¹.
In general, EC50 (read off the curve) refers to the concentration at which the effect is half-maximal. Higher therefore signals a need for much substance. In experiment [1], 14B7 wild type scFv had a Kd of 12 nM, an off-rate (koff) of 0.0032 s⁻¹ and an on-rate constant (kon) of 310000 M⁻¹ s⁻¹. In experiment [2], this substance displayed an off-rate constant (koff) of 0.0035 s⁻¹. The EC50 (read off the curve) in experiment [4] was found to be 0.05 µg/mL.

The values above are taken from patent publication US7446182.
